Test results from the supplement of paper PMC12042874.
± gives the uncertainty stated by the source.

Assay: amyloid nucleation score (Sup35N fusion, yeast selection) (log enrichment); library NNK3; higher = more nucleation; inactive = no reads after selection
How it was run: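 Peptides of 20 random codons, each fused to Sup35N, were expressed in psi-negative yeast. Cells were induced with 100 μM copper sulfate for 24 hours and grown 7 days at 30°C on medium lacking adenine and uracil, and plasmid inserts before and after selection were Illumina-sequenced. Nucleation scores are DiMSum log enrichments of output over input reads, centred on the mode score of non-aggregating sequences, and sequences under 100 input reads were excluded.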

Substance | amyloid nucleation score
ILYVLCIFLCGAAIFSLTVL | inactive
PEGVSGIAE | inactive
SPWAMGCECLVRGGLEKYAK | inactive
SNIGHM | inactive
SCWKTHSAKNSNGS | inactive
CDFGFRMEEESLQRR | inactive
LYLGTSYHRNC | inactive
KCYNKVWELMLAYG | inactive
WYAKCCKV | inactive
IGMTRGMGLVVFYSRYMWDD | inactive
VYETELTFSARPRFCWCC | 0.094 ± 0.59
ISYSAMVNCPDEIWVRYSSW | inactive
LSFHP | inactive
YDFYTIVNIRTLHPRLIFFM | -0.195 ± 0.9
TLLHLLKLSGLVSKCSTMVL | inactive
KGYGCFTGMYSENARMMVIS | 0.136 ± 0.66
SPLLGINYRVFNVCLLERR | 0.909 ± 0.21
GAMCIRWEG | inactive
WCNMVRVHMF | inactive
RRFVVGYRDLMMRFIVRHGE | 0.403 ± 0.24
FIANGSDILADLFLHTSFHG | inactive
NVVCSTARIEKPMGVLCFMF | 1.92 ± 0.092
LPGCVSEFG | inactive
VLDVVGKKFMRVSWQDGMPG | 1.13 ± 0.18
FVSGDSNTIIQPMAYNMDSK | -0.282 ± 0.42
ICKNYSVLVLRFGGSEGPTV | 1.52 ± 0.1
LCSIVWRGIRDAYGQRYYVV | inactive

Substance | amyloid nucleation score
FDDPHGTVTCED | -0.176 ± 0.98
ICSSFDGQ | 0.458 ± 0.2
LKVNIWLPGRPFTILWSPRR | inactive
IWICYWSCRIKAYRLSNFFD | inactive
YSFMKP | inactive
TGVSVECLLLWSWSVVWRCM | inactive
VDGSVNMRALKCINNCVL | inactive
VHSIYSTNFVLVFIPQSSVN | 1.9 ± 0.075
SRRSHWFWEPSDTCASFTRP | inactive
LSSFNDDMNGVTFYPSISLD | inactive
DFYFRVIVVGGHCVSDTSFL | inactive
PTNDAYVVVMD | inactive
VFSFLYIRNV | 1.55 ± 0.087
GYMDAGIDWF | inactive
SNWVISVLVRVNLAYAYLTD | inactive
HMVSFAERTVSDVGTVNPGQ | inactive
SRDMCAWWVYSGSSQSNECM | inactive
RVPYR | inactive
TFSQGSWRTESSLRDGGCLD | inactive
LHSLKHNCVFSAIVGHCFQC | 2.11 ± 0.098
SCPIRDSGTGSYL | inactive
MLEGQSSCRVITDLARL | inactive
ASRPFFRPVRQVSEVLPGQW | 0.058 ± 1.1
GHPGNSAEADKCGHRQRRP | inactive
SSRRSNYASSDPIWIVSLFG | inactive
FCFLLKALTYHLS | -0.067 ± 0.75
GVCRVVRSNHCMLWFRLDSS | inactive

Substance | amyloid nucleation score
CVLSSRF | inactive
LSDDMPKV | inactive
APENKVYVRAQVKTACKFRG | 0.213 ± 0.81
LCHWFL | inactive
ASGVATSFGFRLWSCVEDIE | inactive
FFASSIYQRALYTVILSSPT | inactive
GVSVCVGDVGNLAAFECFRA | inactive
INNTAPPQTYPR | inactive
QIVRLTSNIPRTAPSWSFH | inactive
DRPSWNMRSLNFSGQSVR | -0.59 ± 1.4
FYICYLNPNQQLFVLN | 1.27 ± 0.1
CSLVLSESPFGNI | inactive
GILCVEMSVTSLGLIIETYF | inactive
YTNHFVDLGMVKLVLFTWNM | 1.63 ± 0.11
QTVKVISPYPTMLTLCD | inactive
HRVIWSFSFVRSDFCFPYCA | inactive
IGKVLDAFGE | inactive
PLRLCNPLSGFVPLLFTAFR | inactive
ERFYTLVI | inactive
CCFNMW | 1.46 ± 0.09
YTLLCNPMVSKSARRLLNWI | inactive
YGKFMLLPVAGGIFVFENML | 1.25 ± 0.14
FGQLGVVNGFTELWQRLCSW | inactive
LDLFSRNSETRAKSDRVWWT | inactive
FNQFHFKCSFNQCCYLNQAA | inactive
NFSETSAKYHVTSRGFSSSR | 0.456 ± 0.21
